Test results taken from PMC6509880.

Target: apo-CrHydA1 ([4Fe4S]-CrHydA1, Chlamydomonas reinhardtii [FeFe] hydrogenase HydA1 lacking the [2Fe] subsite) (Chlamydomonas reinhardtii)

H2 evolution (methyl viologen assay, GC) of 0.04 uM apo-CrHydA1 after 60 min at 37 °C with 0.04-1.2 uM [2Fe]^adt-CaHydF; excess of HydF needed for complete activation: 10 fold excess
Substance: [2Fe]^adt-CaHydF (semi-synthetic HydF from Clostridium acetobutylicum loaded with [Fe2(adt)(CO)4(CN)2]^2-) (natural protein)
